One experiment deals with T1, LILRB3 (human, UniProt O75022 24-443, limits assumed).
T1 construct: also called leukocyte immunoglobulin-like receptor subfamily B member 3
The experiment is described as follows: flow cytometry on LILRB3-overexpressing 293T cells, mAb at 2 ug/ml. (A flow cytometer gives signals particle by particle.)

The target in experiment [1] is T2, human LILRB4 (human, UniProt Q8NHJ6 22-259, limits assumed).
T2 construct: also called leukocyte immunoglobulin-like receptor subfamily B member 4
The experiment is described as follows: flow cytometry on LILRB4-overexpressing 293T cells, mAb at 2 ug/ml.

For experiment [2], the target named is T2, human LILRB4. The experiment is described as follows: ELISA. (In general: An ELISA detects its analyte on a solid surface through an enzyme-linked reagent.)
For the next experiment, the target named is T3, LILRB2 (human, UniProt Q8N423 22-458, limits assumed).
T3 construct: also called leukocyte immunoglobulin-like receptor subfamily B member 2
The experiment is described as follows: flow cytometry on LILRB2-overexpressing 293T cells, mAb at 2 ug/ml.

The target of a further experiment is LILRB5 (human, UniProt O75023 24-458, limits assumed). Briefly: reactivity table, assay not named on the sheet.
A further experiment addresses D2-SR-M16(210-259). Briefly: ELISA, mAb titrated on D2-SR-M16(210-259).
Experiment [3] has as its target T2, human LILRB4. The experiment is described as follows: ELISA, OD450 against antibody concentration.
In experiment [4] the target is T2, human LILRB4. Briefly: reactivity table, assay not named on the sheet.
Experiment [5] addresses T2, human LILRB4. The experiment is described as follows: ELISA, OD450 against antibody concentration. The source holds these as a separate data set.
The target of experiment [6] is T2, human LILRB4. The experiment is described as follows: ELISA, OD450 against antibody concentration. The source holds these as a separate data set.
In experiment [7] the target is T2, human LILRB4. Briefly: ELISA, OD450 against antibody concentration. This is another data set of the same source.

Experimental findings from US20200079851A1 (University of Texas, published 2020) are described below.

T1 sequence (O75022 24-443 limits assumed): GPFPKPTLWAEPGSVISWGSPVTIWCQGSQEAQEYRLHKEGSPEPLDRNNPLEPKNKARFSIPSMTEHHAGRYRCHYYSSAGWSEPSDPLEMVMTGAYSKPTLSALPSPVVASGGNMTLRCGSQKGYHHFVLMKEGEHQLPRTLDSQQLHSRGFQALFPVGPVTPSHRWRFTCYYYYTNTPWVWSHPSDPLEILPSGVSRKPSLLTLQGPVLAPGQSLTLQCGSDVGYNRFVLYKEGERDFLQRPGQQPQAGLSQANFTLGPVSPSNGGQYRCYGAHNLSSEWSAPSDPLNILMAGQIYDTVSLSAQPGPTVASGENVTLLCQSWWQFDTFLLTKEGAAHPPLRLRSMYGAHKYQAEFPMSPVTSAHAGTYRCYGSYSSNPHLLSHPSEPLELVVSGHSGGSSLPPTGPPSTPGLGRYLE
T3 sequence (Q8N423 22-458 limits assumed): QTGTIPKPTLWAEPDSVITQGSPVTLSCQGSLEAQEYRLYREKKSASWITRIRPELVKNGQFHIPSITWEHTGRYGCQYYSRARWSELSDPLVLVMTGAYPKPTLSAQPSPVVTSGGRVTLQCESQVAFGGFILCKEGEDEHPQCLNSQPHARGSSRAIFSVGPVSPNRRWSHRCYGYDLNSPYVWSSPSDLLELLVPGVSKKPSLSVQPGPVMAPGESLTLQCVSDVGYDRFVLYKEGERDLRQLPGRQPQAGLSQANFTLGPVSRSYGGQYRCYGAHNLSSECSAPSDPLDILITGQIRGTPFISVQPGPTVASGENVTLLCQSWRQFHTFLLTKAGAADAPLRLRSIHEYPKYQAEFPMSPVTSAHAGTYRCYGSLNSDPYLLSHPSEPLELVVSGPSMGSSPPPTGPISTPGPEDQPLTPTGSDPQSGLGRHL
LILRB5, sequence (O75023 24-458 limits assumed): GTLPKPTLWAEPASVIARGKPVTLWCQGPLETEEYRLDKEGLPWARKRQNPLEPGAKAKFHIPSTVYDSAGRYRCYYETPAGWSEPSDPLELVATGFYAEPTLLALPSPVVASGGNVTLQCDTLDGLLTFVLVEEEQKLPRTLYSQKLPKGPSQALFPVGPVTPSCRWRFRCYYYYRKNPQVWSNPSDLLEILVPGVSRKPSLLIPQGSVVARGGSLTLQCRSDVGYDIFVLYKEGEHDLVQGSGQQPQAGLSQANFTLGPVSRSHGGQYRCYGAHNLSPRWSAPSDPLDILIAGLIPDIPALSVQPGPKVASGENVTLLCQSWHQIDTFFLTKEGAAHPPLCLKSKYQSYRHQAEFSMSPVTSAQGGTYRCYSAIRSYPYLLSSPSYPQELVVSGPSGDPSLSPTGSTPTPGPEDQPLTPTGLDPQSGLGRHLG
D2-SR-M16(210-259), sequence (chain, as listed by the source): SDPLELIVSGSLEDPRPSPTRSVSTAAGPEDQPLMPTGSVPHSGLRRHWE

B1: anti-LILRB mAb C287 (antibody, V domains shown)
VH: QIQLVQSGPELKKPGETVKISCKASGYTFTNYGINWVKQAPGKGLKWMGWINTNTGEPTYAEDFKGRFAFSLETSASTAYLQINNLKNEDTATYFCTRGSAKGGFFYWGQGTLVTVSA
VL: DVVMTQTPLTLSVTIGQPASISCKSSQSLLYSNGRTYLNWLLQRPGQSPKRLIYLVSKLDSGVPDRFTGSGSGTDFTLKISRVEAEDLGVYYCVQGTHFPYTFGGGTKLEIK
notes: mAb against LILRB3
B1: the “% of cells in the positive gate” value with LILRB3 is 55%.

B2: anti-LILRB4 mAb C84 (antibody, V domains shown)
VH: QIQLVQSGPELKKPGETVKISCKASGYTFTNYGMNWVKQAPGKGLKWMGWINTYTGEPTYADDFKGRFAFSLETSASTAYLQINNLKNEDMATYFCASIYYHTSLWYFDVWGAGTTVTVSS
VL: DVLMTQTPLSLPVSLGDQASISCRSSQNIVHSNGNTYLEWYLQKPGQSPKLLIYRVSNRFSGVPVRFSGSGSGTDFTLKISRVEAEDLGVYYCFQGSHVPLTFGAGTKLELK
notes: Mouse mAb; also called anti-hLILRB4
A word on the EC50: it is the concentration giving half of the maximal effect. A high value points to lower potency in that assay. Consider B2, for which, in the experiment with human LILRB4 [1], the “% of cells in the positive gate” value stood at 62.5%. Moreover, the EC50 in the experiment with human LILRB4 [2] is 0.568 nM.

B3: anti-LILRB mAb C102 (antibody, V domains shown)
VH: EVQLQQSGPELVKPGASVKISCKTSGYTFTEYTMHWVKQSHGKSLEWIGGINPNNGGTSYNQKFKGKATLTVDKSSSTAYMDLRSLTSEDSAVYYCARYWDYFDYWGQGTTLTVSS
VL: DVLMTQTPLSLPVSLGDQASISCRSSQSIVHSNGNTYLEWFLQKPGQSPKLLIYKVSNRFSGVPDRFSGSGSGTDFTLKISRVEAEDLGVYYCFQGSQIPPTFGGGTKLEIK
notes: mAb against LILRB2
With B3, the “% of cells in the positive gate” value in the experiment with LILRB2 came out at 5.22%.

B4: anti-LILRB4 mAb C92 (antibody, V domains shown)
VH: QIQLVQSGPELKKPGETVKISCKASGYTFTNYGMNWVKQAPGKGLKWMGWINTYTGEPTYADDFKGRFAFSLETSASTAYLQINNLKNEDMATYFCASIYYHTSLWYFDVWGAGTTVTVSS
VL: DVVMTQTPLSLPVSLGDQASISCRSSQSLVHSNGNTYLHWYLQKPGQSPKLLIYKVSNRFSGVPDRFSGSGSGTDFTLKISRVEAEDLGVYFCSQSTHVPYTFGGGTKLEIK
notes: Mouse mAb
Consider B4, for which the “% of cells in the positive gate” value in the experiment with human LILRB4 [1] was found to be 44.7%.

B5: anti-LILRB4 mAb C201 (antibody, V domains shown)
VH: DVQLQESGPGLVKPSQSLSLTCTVTGYSITSDYAWNWIRQFPGNKLEWMGYISYSGGTSYNPSLKSRISITRDTSKNQFFLQLNSVTTEDTATYYCARLHYGYDYWGLGTTLTVSS
VL: DVLMTQTPLSLPVSLGDQASISCRSSQSIVHSNGNTYLEWYLQKPGQSPKLLIYKVSNRFSGVPDRFSGSGSGTDFTLKISRVEAEDLGVYYCFQGLHVPPTFGGGTKLEIK
notes: Mouse mAb
For B5, in the experiment with human LILRB4 [1], the “% of cells in the positive gate” value worked out at 38.3%. Besides, the binding result with LILRB5 is on record as “binds”.

B6: anti-LILRB4 rabbit monoclonal antibody #140 (antibody, V domains shown)
VH: EQSLKESGGRLVTPGTPLTLTCTASGFSLSTYDMSWVRQAPGKGLEWIGIISTSYSIYYTYYASWAKGRFTISRTSSTTVDLKMTSLTTEDTATYFCVGGGGKLNSVVYYIRGLRFWGQGTLVTISS
VL: ELVMTQTPSSTSAAVGGTVTINCQASQSVYDDNWCSWYQQKPGQPPKLLIYDASTLPSGVPSRFKGSGSGTQFTLTISDLECDDAATYYCAGAYSDNIYVFGGGTEVEIK
notes: also called mAb 140
For orientation: EC50 (read off the curve) means the midpoint of the concentration-response curve. Read a high EC50 (read off the curve) as weaker potency. As for B6, in the experiment with D2-SR-M16(210-259), the “EC50 (read off the curve)” value is about 0.04 µg/mL. In addition, the EC50 with human LILRB4 [2] was 0.183 nM; with human LILRB4 [3] it was 0.0274 µg/mL.

B7: anti-LILRB4 mAb C53 (antibody, V domains shown)
VH: EVNLEESGGGLVQPGGSMKLSCIASGFTFSNYWMNWVRQSPEKGLEWVAEIRLKYNNYATHYAESVKGRFTISRDDSKSTVYLQMNNLRAEDTGIYYCTGTRYGSSLDYWGQGTSVTVSS
VL: DIVMSQSPSSLAVSVGEKVTMSCKSSQNLFYSTNQKNYLAWYQQKPGQSPKLLIYWASTRESGVPDRFTGSGSGTAFTLTISSVKAEDLAVYYCQQYYNYPLTFGAGTKLELK
notes: Mouse mAb
B7: the “% of cells in the positive gate” value with human LILRB4 [1] amounted to 73.5%.

B8: anti-LILRB4 rabbit monoclonal antibody #120 (antibody, V domains shown)
VH: QSLEESGGRLVTPGTPLTLTCTVSGIDLNKYAMTWVRQAPGKGLEYIGFINIVGIAGYATWAKGRFTISKTSTTVDLKVTSPTTEDTATYFCARNWIRLDLWGQGTLVTVSS
VL: ELDLTQTPASVSAAVGGTVTISCQSSESLYKKNYLSWFQQKPGQPPKLLIFEASKLASGVPSRFSGSGSGTQFTLTISDVQCDDAASYYCLGDYTNGRDTTFGGGTEVVVK
notes: Rabbit mAb
For B8, in the experiment with human LILRB4 [2], the EC50 is 0.0795 nM.

B9: anti-LILRB4 rabbit monoclonal antibody #161-1 (antibody, V domains shown)
VH: QSVKESGGRLVTPGTPLTLTCTVSGIDLSVYLMSWVRHSPGKGLEYIGFINSAGITAYATWAKGRFIISKTSTTVDLKVTSPTTEDTATYFCARNWIRLDLWGQGTLVTISS
VL: ELDLTQTPASVSAAVGGTVTISCQSSETIYKNYLSWFQQKPGQPPKLLIYESSKLASGVPSRFSGSGSGTQFTLTISDVQCDDAATYYCLGGYTDGRDTIFGGGTELEIK
notes: Rabbit mAb
As for B9, the response with human LILRB4 [2] was half-maximal at 0.0691 nM (EC50).

B10: anti-LILRB4 rabbit monoclonal antibody #161-2 (antibody, V domains shown)
VH: QSVKESGGRLVTPGTPLTLTCTVSGIDLSVYLMSWVRHSPGKGLEYIGFINSAGITAYATWAKGRFIISKTSTTVDLKVTSPTTEDTATYFCARNWIRLDLWGQGTLVTISS
VL: TQTPASVSAAVGGTVTISCQSSETIYKNYLSWFQQKPGQPPKLLIYESSKLASGVPSRFSGSGSGTQFTLTISDVQCDDAATYYCLGGYTDGRDTIFGGGTEVEIK
notes: Rabbit mAb
B10 yielded an EC50 with human LILRB4 [2] of 0.084 nM.

B11: anti-LILRB4 rabbit monoclonal antibody #192 (antibody, V domains shown)
VH: EQSLEESGGGLVTPGGTLTLTCTVSGFSLSNNAMSWVRQAPGKGLEWIGVILLAGPTYYASWAKGRFTISKTSTTVDLKITSPTTEDTATYFCAIAIGSRPFALWGQGTLVTISS
VL: ELVLTQTPSSTSAAVGGTVTINCQSSQSVYSNWLSWFQQKPGQPPKPLIYLASTLASGVPSRFSGSGSGTQFTLTISDVQCDDAATYYCQGGYNGNIYTFGGGTEVVVK
notes: Rabbit mAb
Turning to B11, in the experiment with human LILRB4 [2], a half-maximal response (EC50) required 0.14 nM.

B12: anti-LILRB4 rabbit monoclonal antibody #208 (antibody, V domains shown)
VH: EQSVEESGGGLVTPGGTLTLTCTVSGFSLSNNAMSWVRQAPGKGLEWIGVILLSGTTYYASWAKGRFTISKTSTTVDLKITSPTTEDTATYFCAIAIGSRPFALWGQGTLVTISS
VL: ELVMTQTPSSTSAAVGGTVTINCQSSQSVYSNWLSWFQQKPGQPPKPLIYLASTLASGVPSRFSGSGSGTQFTLTISDVQCDDAATYYCQGGYNGNIYTFGGGTEVVVK
notes: Rabbit mAb
Take B12: it took 0.132 nM to reach a half-maximal effect with human LILRB4 [2] (EC50).

B13: anti-LILRB mAb C3 (antibody, V domains shown)
VH: EVQLVESGGGLVQPKGSLKLSCAASGFTFNNYAMNWGRQAPGKGLEWVARIRSKRNNYATHYDDSVKDRFTISRDDSQNMLYLQLNNLKTEDTAMYYCVRDGPYAMDYWGQGTSVTVSS
VL: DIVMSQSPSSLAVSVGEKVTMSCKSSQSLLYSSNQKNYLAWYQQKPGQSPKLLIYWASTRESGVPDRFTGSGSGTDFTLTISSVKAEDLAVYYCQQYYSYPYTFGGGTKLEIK
notes: mAb against LILRB3
Regarding B13, in the experiment with LILRB3, the “% of cells in the positive gate” value was 54.2%. The binding result with human LILRB4 [4] is listed as “binds”.

B14: anti-LILRB mAb C290 (antibody, V domains shown)
VH: EVQLLQSGPELVKPGASVKISCRTSGYTFTEYTMHWVKQSHGKSLEWIGGINTNNGGTSYNQKFKGKATLTVDKSSSTAYMELRSLTSEDSAVYYCARDKRSRGELDSTMDYWGQGTSVTVSS
VL: DIVMTQAAPSVPVTPGESVSISCRSSKSLLHSNGNTYLYWFLQRPGQSPQLLIYRMSNLASGVPDRFSGSGSGTAFTLRISRVEAEDVGVYYCMQHLEYPFTFGSGTMLEIK
notes: mAb against LILRB3
On to B14, for which the “% of cells in the positive gate” value with LILRB3 came to 64%. The binding result with LILRB5 and in the experiment with human LILRB4 [4] was “binds” each time.

B15: anti-LILRB4 rabbit monoclonal antibody #216-1 (antibody, V domains shown)
VH: EQSVEESGGGLVKPGASLTLTCIASGFSFSSSYVMCWVRQAPGKGLELIACIHAGGSGSTYYASWAKGRFTISKTSSTTVTLQMTSLTAADTATYFCARYNYHFYYIGDYSDLWGPGTLVTVSS
VL: ELVMTQTPSSVSAAVGGTVTIKCQASEDIDSYLAWYQQKPGQRPKVLIYRASTLASGVPSRFKGSGSGTEFTLTISGLECDDAATYYCQQGWSNDVGSNAFGGGTKVEIK
notes: Rabbit mAb
In the experiment with human LILRB4 [5], B15 gave an EC50 of 0.0459 µg/mL.

B16: anti-LILRB mAb C193 (antibody, V domains shown)
VH: EVQLVESGGGLVQPKGSLRLSCAASGFIFNTYAMNWVRQAPGKGLEWVARIRSKSNKYATYYVDSVKDRFTISRDDSQSMLYLQMNNLKTEDTAMYYCVRDGIWGQGTLVTVSA
VL: DIVMTQSPSSLTVTAGEKVTMSCKSSQSLLNSGNQKNYLTWYHQKPGQPPKLLIYWAFTRESGVPDRFTGSGSGTDFTLTISSVQAEDLAVYYCQNDYSYPLTFGSGTKLEIK
notes: mAb against LILRB2
As to B16, the “% of cells in the positive gate” value with LILRB2 is 15%.

B17: anti-LILRB4 rabbit monoclonal antibody #101 (antibody, V domains shown)
VH: HSVKESGGGLVTPGESLKLTCKASGMDFSKYWICWVRQAPGKGLEWIACIDTGRSAITVYAKWAKGRFTISKTSSTTVTLQMTTLTAADTATYFCETSVDLWGPGTLVTISS
VL: ELDLTQTPASVEAAVGGTVTIKCQASESIYSGLAWYKQKPGQPPKFLILSASTQASGVPSRFKGSGSGTEFTLTISDLECADAATYYCQSRHYGSSRSYGFAFGGGTEVEIK
notes: Rabbit mAb
For B17, the EC50 in the experiment with human LILRB4 [6] turned out to be 0.0177 µg/mL; in the experiment with human LILRB4 [2], 0.118 nM.

B18: anti-LILRB4 rabbit monoclonal antibody #128-1 (antibody, V domains shown)
VH: EQSVEESEGRLVTPGGSLTLTCTVSGFGLSSWAMAWVRQAPGKGLEWIGIIGVSGKIYYPTWAKGRFTISRTSTTVDLKIASPTTEDTATYFCAREPYGDSLWGQGTLVTISS
VL: ELVMTQTPSPVSAAVGGTVTISCQSSQNISTYLSWYQQKPGQPPKFLIYQASKLASGVSSRFKGSGSGTQFTLTISDVQCDDAASYYCAGWKSYSNDDNDFGGGTEVVVK
notes: Rabbit mAb
With B18, the EC50 turned out to be 0.0209 µg/mL in the experiment with human LILRB4 [7] and 0.139 nM with human LILRB4 [2].
